Reference: patent publication US20250092133A1 (Amgen, published 2025)
Positions count from the first letter of the chain named. Each block holds one binder with its values, some of them ahead of it.

What was measured:
[1] = target: T1, Hu CDH3 Dom1 mu (aa 108-215), human/mouse chimeric CDH3 on CHO cells (chimeric hu/mu); experiment: flow cytometry, transfected CHO cells; crude periplasmic scFv extract; anti-FLAG M2 + anti-mouse IgG Fcγ-PE
T1 chain: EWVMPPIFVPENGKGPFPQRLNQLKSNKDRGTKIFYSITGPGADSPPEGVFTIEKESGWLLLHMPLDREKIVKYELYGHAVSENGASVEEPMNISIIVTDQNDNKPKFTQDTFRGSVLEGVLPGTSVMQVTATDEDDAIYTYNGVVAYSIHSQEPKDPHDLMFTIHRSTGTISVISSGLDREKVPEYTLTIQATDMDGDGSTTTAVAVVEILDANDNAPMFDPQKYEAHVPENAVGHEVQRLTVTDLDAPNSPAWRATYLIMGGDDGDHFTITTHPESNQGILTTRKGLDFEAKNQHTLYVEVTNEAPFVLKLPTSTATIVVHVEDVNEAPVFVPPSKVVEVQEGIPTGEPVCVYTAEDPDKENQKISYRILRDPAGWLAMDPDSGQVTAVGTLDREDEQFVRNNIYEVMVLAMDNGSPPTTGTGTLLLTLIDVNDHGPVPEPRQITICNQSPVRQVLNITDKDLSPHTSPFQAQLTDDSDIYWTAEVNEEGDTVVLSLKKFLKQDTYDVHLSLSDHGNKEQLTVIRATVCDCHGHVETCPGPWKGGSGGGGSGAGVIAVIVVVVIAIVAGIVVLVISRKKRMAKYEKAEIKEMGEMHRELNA
Protocol: (§1) Cells transfected with human or murine CDH3, or with the chimeric human/mouse CDH3 molecules (see Example 1) were stained with crude, undiluted periplasmic extract containing scFv binding to human/macaque CDH3. […] As negative control, cells were incubated with PBS/2% FCS instead of the periplasmic extract. The samples were measured by flow cytometry.

[2] = target: T2, Hu CDH3 Dom1B mu (aa 144-179), human/mouse chimeric CDH3 on CHO cells (chimeric hu/mu, UniProt P22223 108-681 (human entry)); experiment: as above
T2 chain: T1 chain with E1D, M4V, P5A, F8S, G31D, Y77F, E90D, N104H
Protocol: as §1

- binding result [1]: no binding
- binding result [2]: no binding
B1: CDH3-9 (scFv)
scFv: EVQLVEESGGDLVKPGGSLKLSCAASGFTFSTYGMSWVRQTPDKRLEWVATISSGGHYSYYPDSVKGRFTISRDNAKNTLYLQMSSLKSEDTAMYYCASYYYGSPFAYWGQGTTVTVSSGGGGSGGGGSGGGGSELQMTQSPSSLSASLGERVSLTCRASQDIGSSLNWLQQKPDGTIKRLIYDTSSLDSGVPKRFSGSRSGSDYSLTISSLESEDFGDYYCVQYGSSPLTFGAGTKLEIK
notes: Used as crude periplasmic extract and detected through a FLAG tag; also called CDH3-9 scFv

- binding result [1]: no binding
- binding result [2]: no binding
B2: CDH3-8 (scFv)
scFv: EVQLVEQSGAEVVKPGASVKITCKASGYAFSSYWMNWVRQRPGKGLEWIGHIYPGDGDTNYNGKFKGKVTLTADKSSNTAYMQLSDLTPEDSAVYFCARDRGSFGAWFAYWGQGTTVTVSSGGGGSGGGGSGGGGSELVMTQTPSSLSASLGDRVTISCRASQDISNYLNWYQQKPDGTVKLLIYYTSRLHSGVPSRFSGSGSGTDYSLTISNLEQEDIATYFCQQGNRNPPTFGGGTKLEIK
notes: Used as crude periplasmic extract and detected through a FLAG tag; also called CDH3-8 scFv

- binding result [1]: no binding
- binding result [2]: no binding
B3: CDH3-10 scFv (scFv)
scFv: EVQLVEESGGGLVKPGGSLKLSCAASGFTFSSYAMSWVRQTPDKRLEWVATISSGGHYTYYPDSVKGRFTISRDNAKNTLYLQMSSLKSEDTAMYYCASYYYGIPFGYWGQGTTVTVSSGGGGSGGGGSGGGGSELVMTQSPSSLSASLGEGVSLTCRASQDIGINLIWLRQEPDGTIKRLIYDTSSLDSGVPKRFSGSRSGSDYSLTISSLESEDFVHYYCLQYGSSPLTFGAGTKLEIK
